Sequences and labels used below:
B1: syntaxin-16 (209–221) peptide [human] / TBC1D23 C-terminal domain [mouse] (parent complex)
chain 1: DDNTLYHRGFTED
chain 2: DRKEVVNIQTWINKPDIKHHFPCKEVKESGHMFPSHLLVTATHMYCLREILSRKGLAYIQSRQALNSVVKITSKKKHPELITFKYGNSSASGIEILAIERYLIPNAGDATRAIKQQIMKVLDALES

For orientation: Kd means the concentration at which binding is half-saturated.

The variants in the assay derive from B1. The assay is described as follows: ITC.
Take chain 1 R8A: the Kd stood at 10.3 µM.

(Values after PMC11093223 (2024).)
